How the values were obtained:
Conditions in all cases: both partners purified
[1] = biological target: T1, MukB Hinge, purified (36 kDa) (E. coli, UniProt P22523 566-863); experiment: SEC; Superose 6 10/300 GL; 50 mM HEPES pH 7.5, 100 mM NaCl, 1 mM DTT, 1 mM EDTA, 5 mM MgCl2; MatPΔC18 (73 μM) and/or Hinge (15 μM); fractions on SDS-PAGE
T1 construct: MukB, E. coli, residues 566-863 (Hinge construct); printed size 36 kDa; details of purification are in Supplementary Methods; source: E. coli C3013I, pET vector, purified
T1 sequence (looked up): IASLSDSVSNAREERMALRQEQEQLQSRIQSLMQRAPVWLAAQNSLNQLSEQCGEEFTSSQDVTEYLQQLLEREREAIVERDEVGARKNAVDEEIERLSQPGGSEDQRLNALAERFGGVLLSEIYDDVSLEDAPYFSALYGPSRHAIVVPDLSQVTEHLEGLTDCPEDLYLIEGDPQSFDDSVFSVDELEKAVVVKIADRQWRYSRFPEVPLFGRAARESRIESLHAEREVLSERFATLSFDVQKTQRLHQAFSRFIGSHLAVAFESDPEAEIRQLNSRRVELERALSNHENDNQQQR

[2] = biological target: T2, MukB–Flag (E. coli, UniProt P22523 1-1486); experiment: co-IP; MukB–Flag or Hinge–Flag from cell lysate bound to anti-Flag M2 Affinity gel and washed; purified MatPΔC18-6×His added in 50 mM HEPES pH 7.5, 100 mM NaCl, 45 min, 4 °C; SDS-PAGE
T2 construct: MukB, E. coli; printed MW with Flag 171.7 kDa; The printed mass fits the whole protein; also called FLAG-tagged MukB
T2 sequence (looked up): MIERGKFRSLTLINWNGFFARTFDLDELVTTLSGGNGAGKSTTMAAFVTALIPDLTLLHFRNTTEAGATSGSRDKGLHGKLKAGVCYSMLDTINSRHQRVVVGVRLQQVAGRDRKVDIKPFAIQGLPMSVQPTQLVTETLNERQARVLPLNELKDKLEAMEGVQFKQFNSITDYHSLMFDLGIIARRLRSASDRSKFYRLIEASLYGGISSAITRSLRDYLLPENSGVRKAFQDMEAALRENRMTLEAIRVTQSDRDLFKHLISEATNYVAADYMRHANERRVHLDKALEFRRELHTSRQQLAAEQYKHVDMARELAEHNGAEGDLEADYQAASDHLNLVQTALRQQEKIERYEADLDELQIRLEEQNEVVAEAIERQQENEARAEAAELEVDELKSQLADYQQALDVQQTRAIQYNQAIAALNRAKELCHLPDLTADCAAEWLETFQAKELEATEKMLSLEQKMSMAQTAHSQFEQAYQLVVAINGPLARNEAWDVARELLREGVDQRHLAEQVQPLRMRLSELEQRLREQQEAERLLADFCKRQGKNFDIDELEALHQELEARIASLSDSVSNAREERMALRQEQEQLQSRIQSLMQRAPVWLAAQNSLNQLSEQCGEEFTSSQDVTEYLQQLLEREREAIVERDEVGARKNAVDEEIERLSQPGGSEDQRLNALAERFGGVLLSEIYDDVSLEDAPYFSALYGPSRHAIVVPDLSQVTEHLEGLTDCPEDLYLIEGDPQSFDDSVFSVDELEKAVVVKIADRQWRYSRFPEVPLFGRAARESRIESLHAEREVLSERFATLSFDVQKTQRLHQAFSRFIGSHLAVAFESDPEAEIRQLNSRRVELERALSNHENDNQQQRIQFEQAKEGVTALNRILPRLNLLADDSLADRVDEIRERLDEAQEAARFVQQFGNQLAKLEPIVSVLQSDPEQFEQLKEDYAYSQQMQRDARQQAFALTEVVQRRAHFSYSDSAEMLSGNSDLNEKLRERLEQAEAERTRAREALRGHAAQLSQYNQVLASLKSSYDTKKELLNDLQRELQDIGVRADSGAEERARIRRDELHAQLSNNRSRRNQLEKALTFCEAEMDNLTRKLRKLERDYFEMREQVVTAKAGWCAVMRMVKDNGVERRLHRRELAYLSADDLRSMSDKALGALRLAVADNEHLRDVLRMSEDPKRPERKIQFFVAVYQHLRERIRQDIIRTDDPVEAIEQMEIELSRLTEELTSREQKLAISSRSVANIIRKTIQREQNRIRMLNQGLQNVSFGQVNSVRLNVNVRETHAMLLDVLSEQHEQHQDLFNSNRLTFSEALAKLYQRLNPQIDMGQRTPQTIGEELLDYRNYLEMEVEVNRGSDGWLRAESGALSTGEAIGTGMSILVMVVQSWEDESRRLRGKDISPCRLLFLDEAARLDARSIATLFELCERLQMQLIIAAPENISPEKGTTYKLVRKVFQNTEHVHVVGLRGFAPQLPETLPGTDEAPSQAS

[3] = biological target: T3, Hinge–Flag (E. coli, UniProt P22523 566-863); experiment: as above
T3 construct: MukB, E. coli, residues 566-863 (Hinge construct); printed MW with Flag 35.2 kDa; Hinge proteins gave 2 bands on SDS-PAGE, maybe because of proteolytic cleavage; also called FLAG-tagged Hinge
T3 sequence (looked up): T1 sequence (looked up)

[4] = biological target: T4, MukB-6×His, purified (E. coli, UniProt P22523 1-1486); experiment: co-IP; MatPΔC18–Flag from cell lysate bound to anti-Flag M2 Affinity gel and washed; purified MukB, MukE, MukF added as indicated in 50 mM HEPES pH 7.5, 100 mM NaCl, 45 min, 4 °C; SDS-PAGE
T4 construct: MukB, E. coli; printed MW with 6×His 172.6 kDa; The printed mass fits the whole protein; source: E. coli C3013I, pET vector, purified
T4 sequence (looked up): T2 sequence (looked up)

B1: MatPΔC18-6×His, purified (domain or fragment, E. coli, UniProt P0A8N0 1-132, looked up)
chain: MKYQQLENLESGWKWKYLVKKHREGELITRYIEASAAQEAVDVLLSLENEPVLVNGWIDKHMNPELVNRMKQTIRARRKRHFNAEHQHTRKKSIDLEFIVWQRLAGLAQRRGKTLSETIVQLIEDAENKEKY
notes: MatP, E. coli, truncated by its 18 C-terminal amino-acid residues; printed MW with 6×His 18.3 kDa; source: E. coli C3013I, pET vector, purified
binding result [1]: binds
binding result [2]: binds
binding result [3]: binds

B2: MatPΔC18–Flag (domain or fragment, E. coli, UniProt P0A8N0 1-132, looked up)
chain: B1 chain
notes: MatP, E. coli, truncated by its 18 C-terminal amino-acid residues; printed MW with Flag 16.9 kDa; also called FLAG-tagged MatPΔC18
binding result [4]: binds

Reference: article PMC4738335, “MatP regulates the coordinated action of topoisomerase IV and MukBEF in chromosome segregation” (Nature Communications, 2016)
